Measurements as given in US20230218710A1 (COHBAR, published 2023).
Square brackets hold non-standard residues; d marks the D form. Ends that are not written are not given here.

Assays:
[1] = molecular target: T1, Apelin Receptor (APJ) stably overexpressed in CHO-K1 AGTRL1 Gi cells (UniProt P35414 1-380, limits assumed); experiment: cell-based or functional assay
T1 sequence (looked up): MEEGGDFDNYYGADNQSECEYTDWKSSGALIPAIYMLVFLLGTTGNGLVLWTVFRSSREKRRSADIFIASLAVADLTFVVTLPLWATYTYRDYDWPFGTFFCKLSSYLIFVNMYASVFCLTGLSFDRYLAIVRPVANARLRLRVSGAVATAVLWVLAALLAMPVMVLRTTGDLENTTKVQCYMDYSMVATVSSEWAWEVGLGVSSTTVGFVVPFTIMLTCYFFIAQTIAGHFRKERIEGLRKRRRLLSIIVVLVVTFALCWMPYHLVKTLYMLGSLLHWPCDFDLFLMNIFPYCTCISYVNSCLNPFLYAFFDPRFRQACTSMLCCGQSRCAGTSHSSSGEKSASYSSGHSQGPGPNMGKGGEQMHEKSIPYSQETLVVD

[2] = molecular target: ProLink tagged human APJ (Apelin Receptor) in CHO-K1 AGTRL1 β-Arrestin cells (human, UniProt P35414 1-380); experiment: cell-based or functional assay

inhibition of forskolin-induced cAMP, Percent of Pyr-Apelin-13 Control Activity (10 µM peptide) [1] | β-Arrestin recruitment, Percent of Apelin-13 Control Activity (10 µM peptide) [2] | Binder
61% | 8% | RXMMGMVFQSLCGA ((Aib) = aminoisobutyric acid at position 2; C-terminal (dA) = D-alanine) [SEQ ID NO: 34]
8% | 17% | RXLLGLVFQSLCGA ((Aib) = aminoisobutyric acid at position 2; C-terminal (dA) = D-alanine) [SEQ ID NO: 35]
70% | 3% | RRMMGMVYQCLCG[dA] (cysteine pairing not given here) [SEQ ID NO: 10]
12% | 0% | RRMMGMVEQSLCG[dA] [SEQ ID NO: 38]
-13% | 0% | RRMMGMVFQSLEG[dA] [SEQ ID NO: 39]
19% | 0% | RRLLGLVEQSLCG[dA] [SEQ ID NO: 40]
15% | 0% | RRLLGLVFQSLEG[dA] [SEQ ID NO: 41]
5% | 0% | MMGMV [SEQ ID NO: 44]
10% | 0% | MMGMVF [SEQ ID NO: 45]
11% | 0% | MMGMVFQ [SEQ ID NO: 46]
49% | 0% | RRMMGMVAQCLCG[dA] (cysteine pairing not given here) [SEQ ID NO: 11]
-6% | 1% | MMGMVFQS [SEQ ID NO: 47]
15% | 1% | MMGMVFQSL [SEQ ID NO: 48]
14% | 1% | MMGMVFQSLCG[dA] [SEQ ID NO: 49]
8% | 0% | RMMGMVF [SEQ ID NO: 50]
24% | 0% | RMMGMVFQ [SEQ ID NO: 51]
24% | -1% | RRMMGMVEQCLCG[dA] (cysteine pairing not given here) [SEQ ID NO: 12]
